B1: Abl interactor 1 (Homo sapiens), Q8IZP0-4 (parent)
chain: MAELQMLLEEEIPSGKRALIESYQNLTRVADYCENNYIQATDKRKALEETKAYTTQSLASVAYQINALANNVLQLLDIQASQLRRMESSINHISQTVDIHKEKVARREIGILTTNKNTSRTHKIIAPANMERPVRYIRKPIDYTVLDDVGHGVKWLKAKHGNNQPARTGTLSRTNPPTQKPPSPPMSGRGTLGRNTPYKTLEPVKPPTVPNDYMTSPARLGSQHSPGRTASLNQRPRTHSGSSGGSGSRENSGSSSIGIPIAVPTPSPPTIGPAPGSAPGSQYGTMTRQISRHNSTTSSTSSGGYRRTPSVTAQFSAQPHVNGGPLYSQNSIADSPTPPPPPPPDDIPMFDDSPPPPPPPPVDYEDEEAAVVQYNDPYADGDPAWAPKNYIEKVVAIYDYTKDKDDELSFMEGAIIYVIKKNDDGWYEGVCNRVTGLFPGNYVESIMHYTD

Variants of: B1
Settings: with Abl1, P00520-4
Abl1, P00520-4, sequence (P00520 other isoform, or with tags, fused parts or gaps): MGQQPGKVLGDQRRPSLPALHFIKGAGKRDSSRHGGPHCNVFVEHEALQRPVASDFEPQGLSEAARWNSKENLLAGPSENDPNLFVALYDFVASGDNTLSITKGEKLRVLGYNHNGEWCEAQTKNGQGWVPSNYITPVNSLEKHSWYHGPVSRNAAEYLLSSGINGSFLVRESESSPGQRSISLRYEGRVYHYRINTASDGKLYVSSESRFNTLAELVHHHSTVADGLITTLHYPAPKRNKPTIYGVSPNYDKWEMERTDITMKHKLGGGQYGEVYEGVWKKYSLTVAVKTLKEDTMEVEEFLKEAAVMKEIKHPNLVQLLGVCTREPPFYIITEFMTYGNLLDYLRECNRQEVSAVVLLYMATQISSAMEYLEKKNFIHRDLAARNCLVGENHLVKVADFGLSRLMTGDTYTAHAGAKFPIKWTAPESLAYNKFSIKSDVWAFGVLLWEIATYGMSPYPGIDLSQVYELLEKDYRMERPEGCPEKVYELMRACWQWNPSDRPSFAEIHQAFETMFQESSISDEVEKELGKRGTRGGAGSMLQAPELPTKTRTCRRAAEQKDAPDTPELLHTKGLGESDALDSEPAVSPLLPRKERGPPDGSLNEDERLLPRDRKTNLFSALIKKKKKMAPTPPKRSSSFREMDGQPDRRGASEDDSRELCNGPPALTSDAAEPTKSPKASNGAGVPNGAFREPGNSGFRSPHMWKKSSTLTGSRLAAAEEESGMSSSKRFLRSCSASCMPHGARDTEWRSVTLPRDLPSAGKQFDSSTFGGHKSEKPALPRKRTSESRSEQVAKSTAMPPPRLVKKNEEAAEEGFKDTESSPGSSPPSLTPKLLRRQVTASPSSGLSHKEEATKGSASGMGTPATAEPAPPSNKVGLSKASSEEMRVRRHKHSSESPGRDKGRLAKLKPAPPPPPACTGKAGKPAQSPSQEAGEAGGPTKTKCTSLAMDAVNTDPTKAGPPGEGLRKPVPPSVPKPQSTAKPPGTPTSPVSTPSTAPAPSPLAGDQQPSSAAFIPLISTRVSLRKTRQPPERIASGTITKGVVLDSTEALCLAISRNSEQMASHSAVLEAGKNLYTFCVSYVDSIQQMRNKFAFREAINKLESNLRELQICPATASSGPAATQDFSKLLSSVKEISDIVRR

Variant | effect of a mutation on the interaction
Y398F | decreasing interaction
Y213F | decreasing interaction
